Experimental data published in patent US20130224187A1 (Alexion, published 2013).
Substitutions are numbered along the chain they refer to.

T1: human C4a (human, UniProt P0C0L4 680-756)
T1 construct: domain: C4a
T1 sequence (looked up): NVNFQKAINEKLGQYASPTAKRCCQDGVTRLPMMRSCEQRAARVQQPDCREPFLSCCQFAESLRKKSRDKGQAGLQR

T2: human C5a desarg (human, UniProt P01031 678-750)
T2 construct: also called desarginated C5a; hC5a desarg
T2 sequence: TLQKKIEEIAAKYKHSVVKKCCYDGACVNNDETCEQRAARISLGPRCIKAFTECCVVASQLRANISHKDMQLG

T3: human C5a (human, UniProt P01031 678-751)
T3 construct: also called hC5a; free human C5a
T3 sequence: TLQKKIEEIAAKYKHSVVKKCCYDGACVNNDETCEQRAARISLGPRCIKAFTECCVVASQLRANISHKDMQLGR

T4: cynomolgus macaque C5a (cynomolgus macaque)
T4 construct: also called recombinant cynomolgus macaque C5a; cynomolgus C5a
T4 chain: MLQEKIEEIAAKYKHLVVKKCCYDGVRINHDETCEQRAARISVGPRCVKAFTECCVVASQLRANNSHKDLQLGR

T5: mouse C5a (mouse, UniProt P06684 683-755)
T5 construct: also called recombinant mouse C5a
T5 sequence: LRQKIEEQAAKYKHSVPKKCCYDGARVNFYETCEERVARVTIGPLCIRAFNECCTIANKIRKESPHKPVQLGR

B1: 5an178ME (antibody, V domains shown)
VH: EVKLVESGGGLVQPGGSRKLSCAASGFTFSDYGMVWVRQAPGKGLEWVAFISSGSSNIYYADTVKGRFTISRDNPKNTLFLQMNSLRSEDTAIYYCGRAFSFYYGYDYWGQGTTLTVSS
VL: EIVLTQSPASLAVSLGQRATISCSASESVEYFGTSLMQWYQQKPGQPPKLLIYAASNVESGVPARFSGSGSGTDFSLNIHPVEEDDIAMYFCQQSRKVPWTFGGGTKLEIKR
notes: Full length mouse IgG2a
B2: 5an179ME (antibody, V domains shown)
VH: EVQLQQSGPELVKPGASVRMSCKASGYTFTSYLIHWVKQKPGQGLEWIGYIYPFNDGTKNNENFKGKATLTSDKSSSTVYMEVSSLTSEDSAVYYCARSHGPHYYGGSYGYHFDYWGQGTTLTVSS
VL: DVVMTQTPLSLPVSLGDQASISCRSSQSLVHSNGNTYLHWYLQKPGQSPKLLIYKVSNRFSGVPDRFSGSGSGTDFTLKISRVEAEDLGVYFCSQSTHVPLTFGAGTKLELKR
notes: Full length mouse IgG2a
B3: 5an101ME (antibody, V domains shown)
VH: EVQLQQSGPELVKPGSSVKISCKASGYTFTDYSMDWVKQSHGKSLEWIGAINPNSGGTNYSQKFKDKATLTVDKSSSTAYMELRSLTSEDSAVYYCASSGSYDGYYAMDYWGQGTSVTVSS
VL: DIVMTQSPASLAVSLGQRATISCRASESVDSYGNSFMHWYQQKPGQPPKLLIYRASNLESGIPARFSGSGSRTDFTLTINPVEADDVATYYCQQSNEDPYTFGGGTKLEIKR
notes: Full length mouse IgG2a
B4: BNJ383 (antibody, human IgG2, kappa, V domains shown)
VH: QVQLVQSGAEVKKPGASVKVSCKASGYTFTDYSMDWVRQAPGQGLEWMGAIHLNTGYTNYNQKFKGRVTMTRDTSTSTVYMELSSLRSEDTAVYYCARGFYDGYSPMDYWGQGTTVTVSS
VL: DIQMTQSPSSLSASVGDRVTITCRASESVDSYGNSFMHWYQQKPGKAPKLLIYRASNLESGVPSRFSGSGSGTDFTLTISSLQPEDFATYYCQQSNEDPYTFGGGTKVEIKR
notes: Humanized bivalent full length IgG; also called anti-hC5a antibody
B5: BNJ347 (antibody, V domains shown)
VH: B4 VH with P41S, Q43K, M70I, R72A, T74E, V79A
VL: DIVMTQSPDSLAVSLGERATINCRASESVDSYGNSFMHWYQQKPGQPPKLLIYRASNLESGVPDRFSGSGSGTDFTLTISSLQAEDVAVYYCQQSNEDPYTFGGGTKVEIKR
notes: also called BNJ347 humanized anti-C5a antibody
B6: BNJ346 (antibody, V domains shown)
VH: B4 VH with M48V, M70I, R72A, T74E, V79A
VL: B5 VL
notes: also called BNJ346 humanized anti-C5a antibody
B7: BNJ345 (antibody, V domains shown)
VH: B4 VH with A9S, V11L, M70I, R72A, T74E, V79A
VL: B5 VL
notes: also called BNJ345 humanized anti-C5a antibody
B8: BNJ354 (antibody, V domains shown)
VH: B4 VH with P41S, Q43K
VL: B5 VL
notes: also called BNJ354 humanized anti-C5a antibody
B9: 5an048ME (antibody, V domains shown)
VH: EVRLQQSGPELVKPGASVRISCKASGYTFNDYYYMNWVKQSHGKSLEWIGYIFPKTGGTHYNQRFKGKATLTVDKSSSTAYMELRSLTSEDSAVYYCASGPFAYWGQGTLVTVSA
VL: EIVLTQSPAIMSASPGEKVTMTCRASSSVSSSYLHWYQQKSGASPKLWIYSTSNLASGVPARFSGSGSGTSYSLTISSVEAEDAATYYCQQYSGYPLTFGGGTKLEIKR
notes: Full length mouse IgG2a
B10: BNJ366 (antibody, human IgG2, kappa)
heavy: QVQLVQSGAEVKKPGASVKVSCKASGYTFTDYSMDWVRQAPGQGLEWMGAIHLNTGYTNYNQKFKGRVTMTRDTSTSTVYMELSSLRSEDTAVYYCARGFYDGYSPMDYWGQGTTVTVSSASTKGPSVFPLAPCSRSTSESTAALGCLVKDYFPEPVTVSWNSGALTSGVHTFPAVLQSSGLYSLSSVVTVPSSNFGTQTYTCNVDHKPSNTKVDKTVERKCCVECPPCPAPPVAGPSVFLFPPKPKDTLMISRTPEVTCVVVDVSHEDPEVQFNWYVDGVEVHNAKTKPREEQFNSTFRVVSVLTVVHQDWLNGKEYKCKVSNKGLPAPIEKTISKTKGQPREPQVYTLPPSREEMTKNQVSLTCLVKGFYPSDISVEWESNGQPENNYKTTPPMLDSDGSFFLYSKLTVDKSRWQQGNVFSCSVMHEALHNHYTQKSLSLSPGK
light: DIVMTQSPDSLAVSLGERATINCRASESVDSYGNSFMHWYQQKPGQPPKLLIYRASNLESGVPDRFSGSGSGTDFTLTISSLQAEDVAVYYCQQSNEDPYTFGGGTKVEIKRTVAAPSVFIFPPSDEQLKSGTASVVCLLNNFYPREAKVQWKVDNALQSGNSQESVTEQDSKDSTYSLSSTLTLSKADYEKHKVYACEVTHQGLSSPVTKSFNRGEC
notes: Humanized full length IgG
B11: BNJ350 (antibody, V domains shown)
VH: QVQLVQSGAEVKKPGASVKVSCKASGYTFTDYSMDWVRQAPGQGLEWVGAINPNSGGTNYSQKFKDRVTITADESTSTAYMELSSLRSEDTAVYYCARSGSYDGYYAMDYWGQGTTVTVSS
VL: B5 VL
notes: also called BNJ350 humanized anti-C5a antibody
B12: 5an180ME (antibody, V domains shown)
VH: EVQLQQPGAEIVRPGASVKLSCRASGYTFTDYWMNWVKQRPGQGLEWIGTIDPSDSYTIYNQKFKGKATLTVDTSSTTAYIQLSSLTSEDSAVYFCARGEDYDVSSYTMDYWGQGTSVTVSS
VL: DIQMTQSPASLSASVGETVTITCRASENIYSYLAWYQQKQGKSPQLLVYNAKTLAEGVPSRFSGSGSGTQFSLKINSLQPEDFGSYYCQHHYGTPYTFGGGTKLEIKR
notes: Full length mouse IgG2a

Key:
[1] = molecular target: T1, human C4a; test: Biolayer interferometry (Octet); biotinylated antigen on streptavidin tip, IgG in solution
Experimental: (§2) These antibodies were evaluated for specificity using Biolayer Interferometry on an Octet (ForteBio Inc.).

[2] = molecular target: T6, human C3a (human, UniProt P01024 672-748); test: as above
T6 construct: domain: C3a
T6 sequence (P01024 672-748 limits assumed): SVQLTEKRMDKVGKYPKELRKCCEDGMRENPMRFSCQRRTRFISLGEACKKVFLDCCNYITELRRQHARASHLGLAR
Experimental: as §2

[3] = molecular target: T2, human C5a desarg; test: Biolayer interferometry (Octet); biotinylated antigen on streptavidin tip, 20 nM IgG in solution
Experimental: as §2

[4] = molecular target: T3, human C5a; test: as above
Experimental: as §2

[5] = molecular target: T7, human full-length C5 (human, UniProt P01031 19-673; P01031 678-1676); test: Biolayer interferometry (Octet); biotinylated antigen on streptavidin tip, IgG in solution
T7 construct: mature; also called uncleaved human C5; native, fully-folded human C5
Target sequence in this assay (P01031 19-673 limits assumed, one chain of several): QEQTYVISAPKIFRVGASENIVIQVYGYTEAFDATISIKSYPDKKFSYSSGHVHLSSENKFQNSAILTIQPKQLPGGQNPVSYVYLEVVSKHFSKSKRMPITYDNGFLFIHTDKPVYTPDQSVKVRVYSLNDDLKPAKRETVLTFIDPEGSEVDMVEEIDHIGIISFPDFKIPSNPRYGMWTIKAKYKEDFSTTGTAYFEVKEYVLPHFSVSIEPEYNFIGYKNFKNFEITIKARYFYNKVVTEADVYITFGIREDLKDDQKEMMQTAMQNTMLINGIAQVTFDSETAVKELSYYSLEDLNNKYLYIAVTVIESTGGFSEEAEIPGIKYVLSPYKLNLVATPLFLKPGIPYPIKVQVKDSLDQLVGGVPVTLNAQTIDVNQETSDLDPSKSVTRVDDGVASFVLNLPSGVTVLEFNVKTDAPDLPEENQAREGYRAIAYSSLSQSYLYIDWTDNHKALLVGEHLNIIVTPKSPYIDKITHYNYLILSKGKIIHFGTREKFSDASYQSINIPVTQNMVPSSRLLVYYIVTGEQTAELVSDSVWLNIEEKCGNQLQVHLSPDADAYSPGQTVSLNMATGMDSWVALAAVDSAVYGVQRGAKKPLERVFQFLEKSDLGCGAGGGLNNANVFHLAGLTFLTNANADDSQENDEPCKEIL
Experimental: as §2

[6] = molecular target: T3, human C5a; test: Biolayer interferometry (Octet)
[7] = molecular target: T4, cynomolgus macaque C5a; test: SPR (Biacore); antibody captured by anti-human Fc on CM5 chip, recombinant cynomolgus C5a 0.6-5.9 nM as analyte; 1:1 Langmuir fit
Experimental: The surface was regenerated with 20 mM HCl, 0.02% surfactant P20 (Biacore) after each cycle to remove bound antibody and antigen. The data was evaluated using Biacore BlAevaluation software using a 1:1 Langmuir Model Fit (Rmax:Global Fit; R1:Local Fit). These experiments were for screening purposes with a minimal number of analyte concentrations (3 to 4) with 1 duplicate.

[8] = molecular target: T5, mouse C5a; test: SPR (Biacore); antibody captured by anti-human Fc on CM5 chip, recombinant mouse C5a 0.6-5.9 nM as analyte; 1:1 Langmuir fit; footnote: only an approximation of the KD
Experimental: The surface was regenerated with 20 mM HCl, 0.02% P20 after each cycle to remove bound antibody and antigen. The data were evaluated using Biacore BlAevaluation software using a 1:1 Langmuir Model Fit (Rmax:Global Fit; R1:Local Fit).

[9] = molecular target: T1, human C4a; test: Octet analysis
[10] = molecular target: T6, human C3a; test: Octet analysis
[11] = molecular target: T7, human full-length C5; test: Octet analysis
Target sequence in this assay (P01031 19-673 limits assumed, chain 1 of 2): as the sequence (P01031 19-673 limits assumed, one chain of several) above
Target sequence in this assay (P01031 678-1676 limits assumed, chain 2 of 2): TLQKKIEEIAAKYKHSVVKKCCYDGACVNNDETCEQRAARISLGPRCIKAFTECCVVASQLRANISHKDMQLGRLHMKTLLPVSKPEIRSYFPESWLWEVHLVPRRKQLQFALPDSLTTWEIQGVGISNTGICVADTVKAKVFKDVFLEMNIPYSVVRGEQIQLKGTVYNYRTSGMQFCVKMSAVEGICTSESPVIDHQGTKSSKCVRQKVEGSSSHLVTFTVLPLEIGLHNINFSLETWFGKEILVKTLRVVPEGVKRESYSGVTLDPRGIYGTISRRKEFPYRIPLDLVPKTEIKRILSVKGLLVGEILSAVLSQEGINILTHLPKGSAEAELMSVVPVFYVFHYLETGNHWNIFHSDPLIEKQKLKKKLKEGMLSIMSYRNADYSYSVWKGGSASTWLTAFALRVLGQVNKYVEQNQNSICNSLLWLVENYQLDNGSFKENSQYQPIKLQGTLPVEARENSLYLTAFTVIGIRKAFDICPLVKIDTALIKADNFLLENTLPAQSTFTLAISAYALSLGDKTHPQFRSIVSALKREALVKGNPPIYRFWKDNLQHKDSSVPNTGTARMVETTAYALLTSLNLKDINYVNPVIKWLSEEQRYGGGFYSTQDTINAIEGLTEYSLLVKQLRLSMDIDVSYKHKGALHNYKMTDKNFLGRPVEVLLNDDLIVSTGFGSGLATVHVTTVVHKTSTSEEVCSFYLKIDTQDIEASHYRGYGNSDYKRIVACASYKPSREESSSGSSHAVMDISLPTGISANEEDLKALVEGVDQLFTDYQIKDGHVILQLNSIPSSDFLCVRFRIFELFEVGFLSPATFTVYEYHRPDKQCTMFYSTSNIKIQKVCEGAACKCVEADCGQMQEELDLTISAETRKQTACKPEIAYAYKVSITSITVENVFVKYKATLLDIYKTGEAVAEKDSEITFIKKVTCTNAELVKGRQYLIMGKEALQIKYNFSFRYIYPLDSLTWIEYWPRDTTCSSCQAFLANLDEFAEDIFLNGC

[12] = molecular target: T3, human C5a; test: SPR (Biacore); antibody captured by anti-human Fc on CM5 chip, human C5a 0.6-5.9 nM as analyte; 1:1 Langmuir fit
Experimental: (§1) See, e.g., Karlsson and Larsson (2004) Methods Mol Biol 248:389-415. […] The surface was regenerated with 20 mM HCl, 0.02% P20 after each cycle to remove bound antibody and antigen. The data was evaluated using Biacore BlAevaluation software using a 1:1 Langmuir Model Fit (Rmax:Global Fit; R1:Local Fit). Kinetics information such as (kₐ: Association Rate constant), (kd:Dissociation Rate constant) and KD (Equilibrium Dissociation constant) was obtained from the fit. These experiments were for screening purposes with a minimal number of analyte concentrations (3 to 4) with 1 duplicate.

[13] = molecular target: T3, human C5a; test: SPR (Biacore); summary sentence of Table 4
Experimental: as §1

Binder | binding result [1] | binding result [2] | binding result [3] | binding result [9] | binding result [10] | binding result [11] | also measured
B1 | no binding (tested: 20 nM) | no binding (tested: 20 nM) | binds | – | – | – | binding result [4]: binds
B2 | no binding (tested: 20 nM) | no binding (tested: 20 nM) | binds | – | – | – | binding result [4]: binds
B3 | no binding (tested: 20 nM) | no binding (tested: 20 nM) | binds | – | – | – | binding result [5]: no binding (tested: 20 nM); binding result [6]: binds
B4 | – | – | – | – | – | – | Kd [7]: 3.3 nM; Kd [8]: ~0.379 nM
B5 | – | – | – | no binding | no binding | no binding | –
B6 | – | – | – | no binding | no binding | no binding | –
B7 | – | – | – | no binding | no binding | no binding | –
B8 | – | – | – | no binding | no binding | no binding | –
B9 | no binding (tested: 20 nM) | no binding (tested: 20 nM) | binds | – | – | – | binding result [4]: binds
B10 | – | – | – | – | – | – | Kd [12]: 0.15 nM; koff [12]: 0.000158 s⁻¹; kon [12]: 1.05e+06 M⁻¹ s⁻¹; Kd [13]: < 1 nM
B11 | – | – | – | no binding | no binding | no binding | –
B12 | no binding (tested: 20 nM) | no binding (tested: 20 nM) | binds | – | – | – | binding result [5]: no binding (tested: 20 nM); binding result [6]: binds
